This is an account of results in patent US20110306057A1.

Chain of PP2A regulatory subunit B56δ (human (endogenous in human HEK TER cells)) (Q14738 whole entry, stated change not applied): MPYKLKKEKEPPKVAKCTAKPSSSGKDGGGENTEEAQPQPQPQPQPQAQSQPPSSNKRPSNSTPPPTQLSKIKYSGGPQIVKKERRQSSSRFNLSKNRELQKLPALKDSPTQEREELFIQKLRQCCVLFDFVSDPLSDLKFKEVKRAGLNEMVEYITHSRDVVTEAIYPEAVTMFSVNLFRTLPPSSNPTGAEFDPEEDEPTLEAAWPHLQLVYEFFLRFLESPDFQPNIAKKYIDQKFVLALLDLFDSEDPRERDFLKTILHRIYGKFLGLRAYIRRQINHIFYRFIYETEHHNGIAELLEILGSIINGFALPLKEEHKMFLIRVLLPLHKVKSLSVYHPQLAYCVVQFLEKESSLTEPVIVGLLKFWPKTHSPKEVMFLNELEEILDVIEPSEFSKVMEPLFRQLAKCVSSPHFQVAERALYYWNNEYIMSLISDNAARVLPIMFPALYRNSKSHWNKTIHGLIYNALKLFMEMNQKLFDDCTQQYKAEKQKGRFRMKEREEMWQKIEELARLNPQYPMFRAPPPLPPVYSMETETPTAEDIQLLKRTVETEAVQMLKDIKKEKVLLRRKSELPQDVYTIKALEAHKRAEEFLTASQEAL
Chain of cancer-derived FLAG-tagged PP2A Aβ mutant G8R (P30154 other isoform, or with tags, fused parts or gaps limits assumed, stated change not applied): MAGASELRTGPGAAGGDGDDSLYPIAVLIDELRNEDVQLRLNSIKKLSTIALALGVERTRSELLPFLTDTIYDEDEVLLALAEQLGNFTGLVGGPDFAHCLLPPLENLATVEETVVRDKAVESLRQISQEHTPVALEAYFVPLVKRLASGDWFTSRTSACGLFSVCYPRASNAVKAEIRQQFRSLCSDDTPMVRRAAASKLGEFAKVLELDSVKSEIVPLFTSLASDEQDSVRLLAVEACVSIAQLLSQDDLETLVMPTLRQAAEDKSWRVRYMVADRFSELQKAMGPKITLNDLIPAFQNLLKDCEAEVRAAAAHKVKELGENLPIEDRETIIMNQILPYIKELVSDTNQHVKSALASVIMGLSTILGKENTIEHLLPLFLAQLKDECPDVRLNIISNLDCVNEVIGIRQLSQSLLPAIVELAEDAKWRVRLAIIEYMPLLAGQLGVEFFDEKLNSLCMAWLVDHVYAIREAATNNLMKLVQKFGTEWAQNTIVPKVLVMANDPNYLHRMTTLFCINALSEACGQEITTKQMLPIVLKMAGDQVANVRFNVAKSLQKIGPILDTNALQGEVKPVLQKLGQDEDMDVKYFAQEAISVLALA
Chain of wild type (WT) FLAG epitope-tagged version of PP2A Aβ (P30154 whole entry): as the sequence (P30154 other isoform, or with tags, fused parts or gaps limits assumed, stated change not applied) above, with R8G counted along it

For one assay, the target named is endogenous RalA (human) (UniProt P11233). Kind of assay: cell-based or functional assay.
Chain of endogenous RalA (human) (P11233 1-203 limits assumed): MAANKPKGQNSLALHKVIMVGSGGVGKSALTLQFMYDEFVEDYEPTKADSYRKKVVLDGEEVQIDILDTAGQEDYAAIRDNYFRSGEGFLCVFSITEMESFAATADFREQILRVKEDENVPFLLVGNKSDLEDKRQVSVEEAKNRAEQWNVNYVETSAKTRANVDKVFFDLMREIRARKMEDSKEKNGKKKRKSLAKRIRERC
The substance “endogenous PP2A Aβ (from UniProt P30154 2-601)” returned a GTP-bound RalA levels (RalA activation assay, RalBP1 agarose pull-down) of 4.5 fold.

Another assay concerns the target PP2A regulatory subunit B56δ (human (endogenous in human HEK TER cells)) (UniProt Q14738). Kind of assay: anti-FLAG co-IP from HEK TER cells, immunoblot, densitometry; +++ >90%, ++ 50-90%, + <50%. (In general: A western blot detects proteins with antibodies after separation by electrophoresis.)
On to “cancer-derived FLAG-tagged PP2A Aβ mutant G8R (from UniProt P30154 1-601)”, for which the binding level (percent, co-immunoprecipitation densitometry) is below 50%. “cancer-derived FLAG-tagged PP2A Aβ mutant P65S (from UniProt P30154 1-601)”: the binding level (percent, co-immunoprecipitation densitometry) lay within 50 to 90%. Regarding “wild type (WT) FLAG epitope-tagged version of PP2A Aβ (from UniProt P30154 1-601)”, the binding level (percent, co-immunoprecipitation densitometry) is above 90%.

In the case of “cancer-derived FLAG-tagged PP2A Aβ mutant K343E (from UniProt P30154 1-601)”, the binding level (percent, co-immunoprecipitation densitometry) was in the range of 50 to 90%.

Regarding “cancer-derived FLAG-tagged PP2A Aβ mutant D504G (from UniProt P30154 1-601)”, the binding level (percent, co-immunoprecipitation densitometry) was above 90%.
